This is an account of results in patent US7018846 (SCIENCE AND TECHNOLOGY CORPORATION UNM, dated 2006).

This experiment deals with T1, C-terminally His-tagged N-formyl peptide receptor (UniProt P21462 1-350).
T1 construct: Expressed in transfected U937 cells; also called C-His FPR; His6 FPR
T1 sequence: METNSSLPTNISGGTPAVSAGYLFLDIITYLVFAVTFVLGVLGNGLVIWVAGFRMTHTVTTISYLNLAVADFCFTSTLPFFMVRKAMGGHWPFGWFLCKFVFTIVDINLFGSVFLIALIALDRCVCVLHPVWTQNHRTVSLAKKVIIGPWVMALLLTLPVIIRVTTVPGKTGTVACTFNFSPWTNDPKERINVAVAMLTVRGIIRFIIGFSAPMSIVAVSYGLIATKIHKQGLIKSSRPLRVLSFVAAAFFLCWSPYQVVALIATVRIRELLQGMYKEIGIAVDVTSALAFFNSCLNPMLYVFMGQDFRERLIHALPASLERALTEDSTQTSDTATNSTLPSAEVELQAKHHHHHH
Nature of the experiment: flow cytometry; fMLFK-FITC on C-His FPR silica particles, optimal receptor input. On the technique in general: Flow cytometry measures light scatter and fluorescence of single cells or particles in a stream.

No end group written: not given here. *: point of attachment. For = O=C*

B1: formyl-met-leu-phe-lys-FITC (peptide)
peptide: For-MLFK
modifications: also: FITC label, attachment site not given here
notes: Bought from Peninsula Laboratories; also called fMLFK-FITC; fluorescent formyl peptide
For the molecule B1, the “fluorescent ligand signal to background ratio” value is ≥ 30 ratio (x:1).
